What follows are sequences tested on Escherichia coli TOP10 (assay: shrunken log2 fold change of peptide-encoding DNA abundance (4.5 h post-induction vs induction); higher = less antimicrobial activity (less host growth inhibition)). Conditions: time post-induction: 4.5 h; library: site-saturation at positions 5, 18, 19, 20.
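Note: peptides expressed intracellularly from a pBAD plasmid library in pooled LB shake-flask culture, induced with 0.3% L-arabinose, DNA abundance read by NGS, three biological replicates, DESeq2 with apeglm shrinkage.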

| Sequence | shrunken log2 fold change |
| --- | --- |
| RRIRNRPPRLPRPRPRPSQMPRP | -0.232 |
| RRIRNRPPRLPRPRPRPSQPPRP | -0.0682 |
| RRIRNRPPRLPRPRPRPSQWPRP | -0.194 |
| RRIRNRPPRLPRPRPRPSSAPRP | -0.0956 |
| RRIRNRPPRLPRPRPRPSTDPRP | -0.0474 |
| RRIRNRPPRLPRPRPRPSTIPRP | 0.0179 |
| RRIRNRPPRLPRPRPRPSTMPRP | -1.15 |
| RRIRNRPPRLPRPRPRPSVNPRP | -0.201 |
| RRIRNRPPRLPRPRPRPSVRPRP | -0.00578 |
| RRIRNRPPRLPRPRPRPSVYPRP | -0.172 |
| RRIRNRPPRLPRPRPRPSYFPRP | -0.699 |
| RRIRNRPPRLPRPRPRPTALPRP | -0.18 |
| RRIRNRPPRLPRPRPRPTATPRP | 0.433 |
| RRIRNRPPRLPRPRPRPTCIPRP | -0.0808 |
| RRIRNRPPRLPRPRPRPTCNPRP | -0.288 |
| RRIRNRPPRLPRPRPRPTEAPRP | 0.21 |
| RRIRNRPPRLPRPRPRPTEYPRP | -0.203 |
| RRIRNRPPRLPRPRPRPTHAPRP | 0.337 |
| RRIRNRPPRLPRPRPRPTHIPRP | -0.0851 |
| RRIRNRPPRLPRPRPRPTIRPRP | -0.0347 |
| RRIRNRPPRLPRPRPRPTITPRP | -0.455 |
| RRIRNRPPRLPRPRPRPTKPPRP | 0.24 |
| RRIRNRPPRLPRPRPRPTLEPRP | 0.041 |
| RRIRNRPPRLPRPRPRPTLNPRP | -0.105 |
| RRIRNRPPRLPRPRPRPTLTPRP | 0.0952 |

| Sequence | shrunken log2 fold change |
| --- | --- |
| RRIRNRPPRLPRPRPRPTNPPRP | -0.216 |
| RRIRNRPPRLPRPRPRPTNWPRP | 0.31 |
| RRIRNRPPRLPRPRPRPTQCPRP | -0.093 |
| RRIRNRPPRLPRPRPRPTRCPRP | 0.15 |
| RRIRNRPPRLPRPRPRPTRDPRP | 0.386 |
| RRIRNRPPRLPRPRPRPTSCPRP | -0.173 |
| RRIRNRPPRLPRPRPRPTSDPRP | -0.148 |
| RRIRNRPPRLPRPRPRPTVCPRP | -0.0905 |
| RRIRNRPPRLPRPRPRPTVLPRP | -0.091 |
| RRIRNRPPRLPRPRPRPTWLPRP | 0.195 |
| RRIRNRPPRLPRPRPRPTWNPRP | -0.0528 |
| RRIRNRPPRLPRPRPRPTYLPRP | -0.533 |
| RRIRNRPPRLPRPRPRPVDTPRP | 0.033 |
| RRIRNRPPRLPRPRPRPVEAPRP | 0.277 |
| RRIRNRPPRLPRPRPRPVEHPRP | -0.123 |
| RRIRNRPPRLPRPRPRPVEMPRP | 0.0554 |
| RRIRNRPPRLPRPRPRPVFFPRP | -0.223 |
| RRIRNRPPRLPRPRPRPVGPPRP | 0.448 |
| RRIRNRPPRLPRPRPRPVGRPRP | 0.118 |
| RRIRNRPPRLPRPRPRPVHEPRP | -0.00149 |
| RRIRNRPPRLPRPRPRPVHWPRP | 0.384 |
| RRIRNRPPRLPRPRPRPVIMPRP | 0.178 |
| RRIRNRPPRLPRPRPRPVNEPRP | -0.0227 |
| RRIRNRPPRLPRPRPRPVPPPRP | 0.234 |
| RRIRNRPPRLPRPRPRPVPTPRP | 0.288 |

| Sequence | shrunken log2 fold change |
| --- | --- |
| RRIRNRPPRLPRPRPRPVRWPRP | 0.703 |
| RRIRNRPPRLPRPRPRPVSNPRP | -0.00917 |
| RRIRNRPPRLPRPRPRPVTHPRP | 0.0124 |
| RRIRNRPPRLPRPRPRPVTTPRP | 0.171 |
| RRIRNRPPRLPRPRPRPVVLPRP | -0.179 |
| RRIRNRPPRLPRPRPRPVVPPRP | 0.0751 |
| RRIRNRPPRLPRPRPRPVVWPRP | 0.55 |
| RRIRNRPPRLPRPRPRPVWCPRP | -0.226 |
| RRIRNRPPRLPRPRPRPVWLPRP | 0.0895 |
| RRIRNRPPRLPRPRPRPVWQPRP | 0.285 |
| RRIRNRPPRLPRPRPRPVYPPRP | -0.341 |
| RRIRNRPPRLPRPRPRPVYWPRP | 0.0175 |
| RRIRNRPPRLPRPRPRPVYYPRP | -0.562 |
| RRIRNRPPRLPRPRPRPWARPRP | 0.0712 |
| RRIRNRPPRLPRPRPRPWAYPRP | -0.0322 |
| RRIRNRPPRLPRPRPRPWCTPRP | -0.205 |
| RRIRNRPPRLPRPRPRPWFEPRP | -0.879 |
| RRIRNRPPRLPRPRPRPWFFPRP | -0.0137 |
| RRIRNRPPRLPRPRPRPWFGPRP | -0.208 |
| RRIRNRPPRLPRPRPRPWHPPRP | -0.277 |
| RRIRNRPPRLPRPRPRPWHTPRP | -0.0681 |
| RRIRNRPPRLPRPRPRPWKFPRP | -0.0447 |
| RRIRNRPPRLPRPRPRPWKTPRP | 0.0489 |
| RRIRNRPPRLPRPRPRPWLKPRP | -0.0113 |
| RRIRNRPPRLPRPRPRPWLQPRP | -0.0113 |

| Sequence | shrunken log2 fold change |
| --- | --- |
| RRIRNRPPRLPRPRPRPWLVPRP | -0.151 |
| RRIRNRPPRLPRPRPRPWNIPRP | -0.0117 |
| RRIRNRPPRLPRPRPRPWRVPRP | 0.515 |
| RRIRNRPPRLPRPRPRPWSHPRP | -0.17 |
| RRIRNRPPRLPRPRPRPWSSPRP | -0.0666 |
| RRIRNRPPRLPRPRPRPWTHPRP | -0.0174 |
| RRIRNRPPRLPRPRPRPWTYPRP | -0.351 |
| RRIRNRPPRLPRPRPRPWWDPRP | -0.00674 |
| RRIRNRPPRLPRPRPRPWWWPRP | 0.373 |
| RRIRNRPPRLPRPRPRPWWYPRP | -0.361 |
| RRIRNRPPRLPRPRPRPWYIPRP | 0.00246 |
| RRIRNRPPRLPRPRPRPWYSPRP | -2.32 |
| RRIRNRPPRLPRPRPRPYAHPRP | -0.176 |
| RRIRNRPPRLPRPRPRPYARPRP | -0.0034 |
| RRIRNRPPRLPRPRPRPYASPRP | -0.397 |
| RRIRNRPPRLPRPRPRPYCIPRP | -0.177 |
| RRIRNRPPRLPRPRPRPYDQPRP | -0.37 |
| RRIRNRPPRLPRPRPRPYDSPRP | -0.284 |
| RRIRNRPPRLPRPRPRPYENPRP | -0.0659 |
| RRIRNRPPRLPRPRPRPYERPRP | 0.0318 |
| RRIRNRPPRLPRPRPRPYFRPRP | -0.766 |
| RRIRNRPPRLPRPRPRPYHAPRP | -0.0081 |
| RRIRNRPPRLPRPRPRPYHIPRP | -0.366 |
| RRIRNRPPRLPRPRPRPYHRPRP | -0.121 |
| RRIRNRPPRLPRPRPRPYKCPRP | -0.13 |

| Sequence | shrunken log2 fold change |
| --- | --- |
| RRIRNRPPRLPRPRPRPYKDPRP | 0.0141 |
| RRIRNRPPRLPRPRPRPYLPPRP | -0.245 |
| RRIRNRPPRLPRPRPRPYMRPRP | -0.597 |
| RRIRNRPPRLPRPRPRPYNAPRP | -1.54 |
| RRIRNRPPRLPRPRPRPYNLPRP | 0.00765 |
| RRIRNRPPRLPRPRPRPYNNPRP | -1.19 |
| RRIRNRPPRLPRPRPRPYNSPRP | -1.61 |
| RRIRNRPPRLPRPRPRPYPCPRP | -0.00822 |
| RRIRNRPPRLPRPRPRPYRTPRP | -0.268 |
| RRIRNRPPRLPRPRPRPYSFPRP | -1.01 |
| RRIRNRPPRLPRPRPRPYSLPRP | -0.965 |
| RRIRNRPPRLPRPRPRPYSNPRP | -0.155 |
| RRIRNRPPRLPRPRPRPYVCPRP | -0.363 |
| RRIRNRPPRLPRPRPRPYWSPRP | -0.195 |
| RRIRNRPPRLPRPRPRPYYVPRP | -0.207 |
| RRIRPRPPRLPRPRPRPAALPRP | 0.248 |
| RRIRPRPPRLPRPRPRPACDPRP | 0.00904 |
| RRIRPRPPRLPRPRPRPADFPRP | -0.00303 |
| RRIRPRPPRLPRPRPRPADPPRP | 0.558 |
| RRIRPRPPRLPRPRPRPAFMPRP | -0.0434 |
| RRIRPRPPRLPRPRPRPAGIPRP | -0.0533 |
| RRIRPRPPRLPRPRPRPAHAPRP | 0.236 |
| RRIRPRPPRLPRPRPRPAKSPRP | 0.179 |
| RRIRPRPPRLPRPRPRPALCPRP | 0.371 |
| RRIRPRPPRLPRPRPRPALLPRP | 0.0603 |

| Sequence | shrunken log2 fold change |
| --- | --- |
| RRIRPRPPRLPRPRPRPALYPRP | -0.0126 |
| RRIRPRPPRLPRPRPRPAPHPRP | 0.402 |
| RRIRPRPPRLPRPRPRPAQTPRP | 0.177 |
| RRIRPRPPRLPRPRPRPARDPRP | 0.208 |
| RRIRPRPPRLPRPRPRPAREPRP | 0.68 |
| RRIRPRPPRLPRPRPRPARRPRP | 0.374 |
| RRIRPRPPRLPRPRPRPARSPRP | 0.315 |
| RRIRPRPPRLPRPRPRPARVPRP | 0.295 |
| RRIRPRPPRLPRPRPRPAVNPRP | -0.103 |
| RRIRPRPPRLPRPRPRPAVQPRP | 0.168 |
| RRIRPRPPRLPRPRPRPAWLPRP | 0.513 |
| RRIRPRPPRLPRPRPRPAYEPRP | 0.0834 |
| RRIRPRPPRLPRPRPRPAYRPRP | -0.0399 |
| RRIRPRPPRLPRPRPRPCAKPRP | -0.0518 |
| RRIRPRPPRLPRPRPRPCAVPRP | -0.418 |
| RRIRPRPPRLPRPRPRPCCFPRP | -0.133 |
| RRIRPRPPRLPRPRPRPCFWPRP | 0.179 |
| RRIRPRPPRLPRPRPRPCGLPRP | 0.148 |
| RRIRPRPPRLPRPRPRPCGNPRP | -0.0502 |
| RRIRPRPPRLPRPRPRPCIEPRP | -0.291 |
| RRIRPRPPRLPRPRPRPCILPRP | -1.04 |
| RRIRPRPPRLPRPRPRPCKWPRP | -0.32 |
| RRIRPRPPRLPRPRPRPCLFPRP | -0.357 |
| RRIRPRPPRLPRPRPRPCMMPRP | -0.467 |
| RRIRPRPPRLPRPRPRPCNAPRP | -0.179 |
